# Results from US20260116991A1 (HAINAN SIMCERE ZAIMING PHARMACEUTICAL, published 2026).
# B1: hAb007LH2L1b (antibody, human IgG1, V domains shown)
# VH: EVQLVQSGAEVKKPGSSVKVSCKASGYTFTDYEMHWVRQAPGQGLEWMGTIDPETGNTAYNQKFKGRVTITADKSTSTAYMELSSLRSEDTAVYYCTRPYSLTYWGQGTLVTVSS
# VL: DIVMTQTPLSLPVTPGEPASISCRSSQSFVHSNRDTYLQWYLQKPGQSPQLLIYKVSNRFSGVPDRFSGSGSGTDFTLKISRVEAEDVGVYYCFQGSHVPYTFGQGTKLEIK
# notes: Humanized F3.81.19, H2+L1b
# B2: hAb003LH2L1b (antibody, human IgG1, V domains shown)
# VH: EVQLVQSGAEVKKPGSSVKVSCKASGYRFTDYEMHWVRQAPGQGLEWMGTIDPETGNTAYTQKFMDRVTITADKSTSTAYMELSSLRSEDTAVYYCTRGYSFTYWGQGTLVTVSS
# VL: DIVMTQTPLSLPVTPGEPASISCRSSQNIVHSNRNTYLQWYLQKPGQSPQLLIFKVSNRFSGVPDRFSGSGSGTDFTLKISRVEAEDVGVYYCFQGSHVPFTFGQGTKLEIK
# notes: Humanized F2.154.1, H2+L1b
# B3: hAb006LH3L1b (antibody, human IgG1, V domains shown)
# VH: EVQLVQSGAEVKKPGSSVKVSCKASGYTFTDYEIHWVRQAPGQGLEWMGAIDPKTGNTAYNQKFMGRVTLTADKSTSTAYMELSSLRSEDTAVYYCTRYFSFAYWGQGTLVTVSS
# VL: DIVMTQTPLSLPVTPGEPASISCRSSQTFVHSNANTYLQWYLQKPGQSPQLLIYKVSNRFSGVPDRFSGSGSGTDFTLKISRVEAEDVGVYYCFQGSHVPYTFGQGTKLEIK
# notes: Humanized F3.38.7, H3+L1b
# B4: hAb005LH1L1b (antibody, human IgG1, V domains shown)
# VH: EVQLVQSGAEVKKPGASVKVSCKASGYTFTDYEMHWVRQAPGQGLEWMGAIDPETGNTAYIQKFKGRVTMTTDKSTSTAYMELRSLRSDDTAVYYCTRFYSYSHWGQGTTVTVSS
# VL: DIVMTQTPLSLPVTPGEPASISCRSSQSLVHSNRNTYLHWYLQKPGQSPQLLIYKVSNRFSGVPDRFSGSGSGTDFTLKISRVEAEDVGVYYCSQNTHVPPTFGGGTKVEIK
# notes: Humanized F3.54.12, H1+L1b
# B5: hAb001H1L1 (antibody, human IgG1, V domains shown)
# VH: EVQLVESGGGLVQPGGSLRLSCAASGFSFNTNAMNWVRQAPGKGLEWVGRIRSKSNNYATYYADSVKDRFTISRDDSKNSLYLQMNSLKTEDTAVYYCVRDGYYVLFAYWGQGTLVTVSS
# VL: DIVMTQTPLSLPVTPGEPASISCRFSQSIVNSNGNTYLEWFLQKPGQSPQLLIYKVSNRFSGVPDRFSGSGSGTDFTLKISRVEAEDVGVYYCFQGSHVPFTFGQGTKLEIK
# notes: Humanized F2.169.2, H1+L1
# How the values were obtained:
# [1] = biological target: T1, GPC3 on HepG2 cells (human, UniProt P51654 25-554); experiment: FACS on HepG2 cells
# T1 construct: whole, on cells; also called glypican-3
# Description: The desired cells were expanded to a logarithmic growth phase in a T-75 cell culture flask, the medium was removed by pipetting, and the cells were washed twice with a PBS buffer, and digested with trypsin. Then a complete medium was added to stop the digestion, and the cells were blown into a single cell suspension. After counting, the cells were centrifuged, and the cell pellet was resuspended with an FACS buffer (PBS+2% fetal bovine serum) to 2×10⁶ cells/mL. The cell resuspension solution was added to a 96-well FACS reaction plate at 50 μl/well, and a humanized antibody sample to be tested was added at 50 μl/well for incubation at 4° C. for 1 h. […] After the plate was centrifuged and washed 3 times with a PBS buffer, 100 μl of the resulting solution was assayed and analyzed by FACS (FACS Canto™, purchased from BD Biosciences). Data analysis was performed by software (FlowJo) to obtain the mean fluorescence intensity (MFI) of the cells. Then, analysis was performed by software (GraphPad Prism8), data were fitted, and EC₅₀ values were calculated.
# [2] = biological target: T2, monkey GPC3-His protein (monkey); experiment: ELISA, monkey GPC3-His coated; antibody 0.02 nM
# T2 construct: Bought protein; also called monkey GPC3 protein
# Description: (§1) The specific method is described as follows: The antigen protein was diluted with PBS to a final concentration of 1 μg/mL, and the diluent was added to a 96-well ELISA plate at 50 μL/well. The plate was sealed with a plastic film and incubated at 4° C. overnight, washed twice with PBS the next day, and a blocking solution [PBS+2% (w/w) BSA] was added for blocking at room temperature for 2 h. […] After incubation at 37° C. for 2 h, the plate was washed 3 times with PBS. A horseradish peroxidase (HRP)-labeled secondary antibody (purchased from Merck, Cat. No. AP113P) was added for incubation at 37° C. for 1 h, and the plate was washed 5 times with PBS. A TMB substrate was added at 50 μL/well for incubation at room temperature for 10 min, then a stop solution (1.0M HCl) was added at 50 μL/well.
# [3] = biological target: T2, monkey GPC3-His protein; experiment: ELISA, monkey GPC3-His coated; antibody 0.11 nM
# Description: as §1
# [4] = biological target: T2, monkey GPC3-His protein; experiment: ELISA, monkey GPC3-His coated; antibody 0.53 nM
# Description: as §1
# [5] = biological target: T2, monkey GPC3-His protein; experiment: ELISA, monkey GPC3-His coated; antibody 2.67 nM
# Description: as §1
# [6] = biological target: T2, monkey GPC3-His protein; experiment: ELISA, monkey GPC3-His coated; antibody 0.004 nM
# Description: as §1
# [7] = biological target: T2, monkey GPC3-His protein; experiment: ELISA, monkey GPC3-His coated; antibody 13.33 nM
# Description: as §1
# [8] = biological target: T2, monkey GPC3-His protein; experiment: ELISA, monkey GPC3-His coated; antibody 66.66 nM
# Description: as §1
# [9] = biological target: T2, monkey GPC3-His protein; experiment: ELISA, monkey GPC3-His coated; antibody 0.0008 nM
# Description: as §1
# [10] = biological target: T3, murine GPC3-his protein (murine, UniProt Q8CFZ4 25-558, limits assumed); experiment: ELISA, murine GPC3-his coated; antibody 0.02 nM
# T3 construct: Bought protein; also called mouse GPC3 protein; murine GPC3 protein; not shown: His tag
# T3 sequence (Q8CFZ4 25-558 limits assumed): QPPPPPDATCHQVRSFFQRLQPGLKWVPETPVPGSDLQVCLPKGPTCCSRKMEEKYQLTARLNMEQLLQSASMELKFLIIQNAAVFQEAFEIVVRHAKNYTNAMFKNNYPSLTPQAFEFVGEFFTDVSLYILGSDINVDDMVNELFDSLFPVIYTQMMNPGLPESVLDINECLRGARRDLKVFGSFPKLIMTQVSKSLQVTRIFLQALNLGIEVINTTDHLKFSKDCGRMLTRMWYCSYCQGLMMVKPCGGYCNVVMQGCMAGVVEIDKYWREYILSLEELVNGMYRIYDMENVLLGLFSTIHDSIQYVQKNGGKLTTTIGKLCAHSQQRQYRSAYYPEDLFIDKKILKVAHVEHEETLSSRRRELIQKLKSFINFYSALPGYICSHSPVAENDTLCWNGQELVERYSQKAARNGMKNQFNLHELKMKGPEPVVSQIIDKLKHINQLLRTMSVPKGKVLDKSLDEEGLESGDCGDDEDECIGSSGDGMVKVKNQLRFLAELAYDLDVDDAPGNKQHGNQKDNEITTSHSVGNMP
# [11] = biological target: T3, murine GPC3-his protein; experiment: ELISA, murine GPC3-his coated; antibody 0.11 nM
# Description: as §1
# [12] = biological target: T3, murine GPC3-his protein; experiment: ELISA, murine GPC3-his coated; antibody 0.53 nM
# Description: as §1
# [13] = biological target: T3, murine GPC3-his protein; experiment: ELISA, murine GPC3-his coated; antibody 2.67 nM
# Description: as §1
# [14] = biological target: T3, murine GPC3-his protein; experiment: ELISA, murine GPC3-his coated; antibody 0.004 nM
# Description: as §1
# [15] = biological target: T3, murine GPC3-his protein; experiment: ELISA, murine GPC3-his coated; antibody 13.33 nM
# Description: as §1
# [16] = biological target: T3, murine GPC3-his protein; experiment: ELISA, murine GPC3-his coated; antibody 66.66 nM
# Description: as §1
# [17] = biological target: T3, murine GPC3-his protein; experiment: ELISA, murine GPC3-his coated; antibody 0.0008 nM
# Description: as §1
EC50 [1] [nM],Max MFI [1],OD450 nm [2],OD450 nm [3],OD450 nm [4],OD450 nm [5],OD450 nm [6],OD450 nm [7],OD450 nm [8],OD450 nm [9],OD450 nm [10],OD450 nm [11],OD450 nm [12],OD450 nm [13],OD450 nm [14],OD450 nm [15],OD450 nm [16],OD450 nm [17],Binder
9.53,5320,0.32,0.967,2.09,2.35,0.127,2.56,2.61,0.08,,,,,,,,,B1
0.84,4620,1.1,1.96,2.3,2.36,0.386,2.27,2.35,0.185,,,,,,,,,B2
1.49,4610,1.01,1.99,2.56,2.55,0.306,2.38,2.67,0.125,,,,,,,,,B3
1.01,4800,0.664,0.949,1.09,1.11,0.215,1.16,1.16,0.107,,,,,,,,,B4
,,1.08,1.96,2.46,2.54,0.373,2.55,2.55,0.198,1.32,2.31,2.8,2.69,0.48,2.82,2.64,0.239,B5
